The record followed here is patent US20260132223.

The target of data set [1] is TdT (murine terminal deoxynucleotidyl transferase, single cysteine at position 182, conjugated to dNTP via amino acid ester linker) (Mus musculus) (UniProt P09838). Particulars: hydroxymethyl scar on 3'-terminal T base; dTTP ester-linker conjugate; same yield as natural unscarred primer.
Data set [2] has the same target. The data set is described as follows: EMSA. The note with it: Linker 1 or 2 dTTP conjugate, 60 s; covalent primer-extension complex on SDS-PAGE gel shift.

Chain of TdT (murine terminal deoxynucleotidyl transferase, single cysteine at position 182, conjugated to dNTP via amino acid ester linker) (Mus musculus) (P09838 other isoform, or with tags, fused parts or gaps): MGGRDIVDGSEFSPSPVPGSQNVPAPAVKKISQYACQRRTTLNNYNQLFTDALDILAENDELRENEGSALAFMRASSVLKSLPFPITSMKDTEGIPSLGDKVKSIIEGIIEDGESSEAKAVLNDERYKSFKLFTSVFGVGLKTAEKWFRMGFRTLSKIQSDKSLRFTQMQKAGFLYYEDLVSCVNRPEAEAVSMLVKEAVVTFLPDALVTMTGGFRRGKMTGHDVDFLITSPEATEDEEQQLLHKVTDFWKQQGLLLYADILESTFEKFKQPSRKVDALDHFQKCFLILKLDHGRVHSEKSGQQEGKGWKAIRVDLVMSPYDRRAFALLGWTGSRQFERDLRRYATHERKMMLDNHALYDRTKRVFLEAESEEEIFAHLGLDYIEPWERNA

The substance “primer with 3'-terminal hydroxymethyl-scarred dT” yielded an activity (% extension in 1 s) in data set [1] of 35.

As to ssDNA primer, in data set [2], the activity was greater than 95 % extension.
